Assay [1] has as its target ribosomes (80S monosomes and polysomes) (S. cerevisiae (endogenous in BY4741)). The assay is described as follows: co-sedimentation; formaldehyde-crosslinked cell extracts (unstressed or H2O2-treated) on 15-50% sucrose gradients, SW41 Ti 2.5 hr at 278,000 x g, 4°C; fractions western blotted. For orientation: A western blot detects proteins with antibodies after separation by electrophoresis.

The target is the same in assay [2]. The assay is described as follows: co-sedimentation; polysomal proteomics: formaldehyde-crosslinked extracts (unstressed, H2O2, 3-AT) on 15-50% sucrose gradients, fractions F1-F5 against totals by label-free MS; percent ribosome association estimated from the fraction sum to total ratio.

B1: Aat2-TAP (cytosolic aspartate aminotransferase with a C-terminal TAP tag) (enzyme)
chain: MSATLFNNIELLPPDALFGIKQRYGQDQRATKVDLGIGAYRDDNGKPWVLPSVKAAEKLIHNDSSYNHEYLGITGLPSLTSNAAKIIFGTQSDAFQEDRVISVQSLSGTGALHISAKFFSKFFPDKLVYLSKPTWANHMAIFENQGLKTATYPYWANETKSLDLNGFLNAIQKAPEGSIFVLHSCAHNPTGLDPTSEQWVQIVDAIASKNHIALFDTAYQGFATGDLDKDAYAVRLGVEKLSTVSPVFVCQSFAKNAGMYGERVGCFHLALTKQAQNKTIKPAVTSQLAKIIRSEVSNPPAYGAKIVAKLLETPELTEQWHKDMVTMSSRITKMRHALRDHLVKLGTPGNWDHIVNQCGMFSFTGLTPQMVKRLEETHAVYLVASGRASIAGLNQGNVEYVAKAIDEVVRFYTIEAKL
On to B1, for which, in assay [1], the percent in ribosomal fractions is 10% and the percent ribosome associated (H2O2-treated extract) was 13%.

B2: Aat2 (cytosolic aspartate aminotransferase), untagged (enzyme)
chain: B1 chain
B2: the percent ribosome associated (H2O2-treated extract) in assay [2] is 9%.

The values are drawn from article PMC9191892.
